Experimental data: the supplement of paper PMC12783771
± gives the standard deviation of the averaged measurements.

B1: library; a variant is named by its letters at X, in order (parent)
chain: MNIQIGELAKRTACPVVTIRFYEQEGLLPPPGRSRGNFRLYGEEHVERLQFIRHCRSLDMPLSDVRTLLSYRKRPDQDCGEVXMLLDEHIRQVESRIGALLELKHHLVELREACSGARPAQSCGILQXLSXCVCXTRGTTAHXSD

Columns and labels:
[1] = variants of: B1; test: sfGFP reporter fluorescence (15 h) (µM FITC); higher = higher leak; settings: library round: Round 2; ligand: none
Description: (§1)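 Cell-free biosensing: 1 µL Echo-assembled CFE reactions with linear PbrR variant templates (5 nM) and pPbrR-sfGFP reporter, with 1 µM Pb, 30 µM Zn or no ligand; endpoint sfGFP fluorescence after 15 h at 30 °C calibrated as µM FITC. Round 2 ML-predicted PbrR mutants; up to 3 biological replicates.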

[2] = variants of: B1; test: sfGFP reporter fluorescence (15 h) (µM FITC); higher = stronger transcriptional activation; settings: library round: Round 2
Description: as §1

Variant | sfGFP reporter fluorescence [1] | sfGFP reporter fluorescence ([2]; ligand: 1 µM Pb) | sfGFP reporter fluorescence ([2]; ligand: 30 µM Zn)
MNIQIGELAKRTACPVVTIRFYEQEGLLPPPGRSRGNFRLYGEEHVERLQFIRHCRSLDMPLSKVRTLLSYRKRPDQDCGEVNMLLDEHIRQVESRIGALLELKHHLEELREACSGARPAQSCGILQILSDCVCDTRGTTAHPSD [NIDDP D64K V108E] | 0.181 ± 0.026 | 0.581 ± 0.051 | 3.32 ± 0.42
MNIQIGELAKRTACPVVTIRFYEQEGLLPPPGRSRGNFRLYGEEHVERLQFIRHCRSLDMPLSDVRTLLSYRKRPDQDCGEVTMLLDEHIRQVESRIGALLELKHHCVELREACSGARPAQSCAILQILSDCVCATRGTTAHPSD [TIDAP L107C G124A] | 0.27 ± 0.037 | 1.38 ± 0.23 | 2.81 ± 0.45
MNIQIGELAKRTACPVVTIRFYEQEGLLPPPGRSRGNFRLYGEEHVERLQFIRHCRSLDMPLSDVRTLLSYRKRPDQDCGEVTMLLDEHIRQVESRIGALLELKHHCVHLREACSGARPAQSCGILQILSDCVCDTRGTTAHPSD [TIDDP L107C E109H] | 0.247 ± 0.016 | 1.19 ± 0.15 | 2.03 ± 0.17
MNIQIGELAKRTACPVVTIRFYEQEGLLPPPGRSRGNFRLYGEEHVERLQFIRHCRSLDLPLSKVRTLLSYRKRPDQDCGEVNMLLDEHIRQVESRIGALLELKHHLVELREACSGARPAQSCGILQILSCCVCDTRGTTAHPSD [NICDP M60L D64K] | 2.32 ± 0.17 | 3.17 ± 0.17 | 3.67 ± 0.38
MNIQIGELAKRTACPVVTIRFYEQEGLLPPPGRSRGNFRLYGEEHVERLQFIRHCRSLDMPLSKVRTLLSYRKRPDQDCGEVTMLLDEHIRQVESRIGALLELVHHLVELREACSGARPAQSCGILQILSDCVCDTRGTTAHPSD [TIDDP D64K K104V] | 0.156 ± 0.022 | 0.472 ± 0.075 | 2.62 ± 0.29
MNIQIGELAKRTACPVVTIRFYEQEGLLPPPGRSRGNFRLYGEEHVERLQFIRHCRSLDMPLSDVRTLLSYRKRPDQDCGEVNMLLDEHLRQVESRIGALLELVHHCVELREACSGARPAQSCGILQILSDCVCDTRGTTAHPSD [NIDDP I90L K104V L107C] | 0.0665 ± 0.003 | 0.0702 ± 0.0034 | 0.178 ± 0.014
MNIQIGELAKRTACPVVTIRFYEQEGLLPPPGRSRGNFRLYGEEHVERLQFIRHCRSLDMPLSDVRTLLSYRKRPDQDCGEVNMLLDEHIRQVESRIGALLELKEHCVELREACSGARPAQSCGILQILSDCVEDTRGTTAHPSD [NIDDP H105E L107C C134E] | 2.32 ± 0.044 | 2.05 ± 0.18 | 2.82 ± 0.14
MNIQIGELAKRTACPVVTIRFYEQEGLLPPPGRSRGNFRLYGEEHVERLQFIRHCRSLDMPLSDVRTLLSYRKRPDQDCGEVNALLDEHIRQVESRIGALLELKHHCVELREACSGARPAQSCGILQILSDCVCATRGTTAHKSD [NIDAK M84A L107C] | 1.54 ± 0.14 | 2.6 ± 0.14 | 4.03 ± 0.52
MNIQIGELAKRTACPVVTIRFYEQEGLLPPPGRSRGNFRLYGEEHVERLQFIRHCRSLDMPLSDVRTLLSYRKRPDQDCGEVNMLLDEHIRQVESRIGALLELKHHCVELREACSGARPAQSCAILQILSDCVCDTRGTTAHPSD [NIDDP L107C G124A] | 0.942 ± 0.1 | 2.53 ± 0.21 | 3.41 ± 0.84
MNIQIGELAKRTACPVVTIRFYEQEGLLPPPGRSRGNFRLYGEEHVERLQFIRHCRSLDMPLSDVRTLLSYRKRPDQDCGEVNMLLDEHIRQVESRIGALLELTHHEVELREACSGARPAQSCGILQILSDCVCDTRGTTAHPSD [NIDDP K104T L107E] | 0.047 ± 0.0022 | 0.0442 ± 0.00085 | 0.0493 ± 0.0021
MNIQIGELAKRTACPVVTIRFYEQEGLLPPPGRSRGNFRLYGEEHVERLQFIRHCRSLDMPLSDVRTLLSYRKRPDQDCGEVNMLLDEHIRQVESRIGALLELKHHCVELREACSGARPAQSCAILQILSDCVCATRGTTAHKSD [NIDAK L107C G124A] | 0.814 ± 0.086 | 2.25 ± 0.053 | 3.09 ± 0.3
MNIQIGELAKRTACPVVTIRFYEQEGLLPPPGRSRGNFRLYGEEHVERLQFIRHCRSLDMPLSDVRTLLSYRKRPDQDCGEVNMLLDEHLRQVESRIGALLELKHHLVELREACSGARPAQSCGILQILSDCVEDTRGTTAHPSD [NIDDP I90L C134E] | 0.0691 ± 0.0074 | 0.0913 ± 0.0088 | 1.77 ± 0.32
MNIQIGELAKRTACPVVTIRFYEQEGLLPPPGRSRGNFRLYGEEHVERLQFIRHCRSLDLPLSKVRTLLSYRKRPDQDCGEVNMLLDEHIRQVESRIGALLELKHHLVELLEACSGARPAQSCGILQILSDCVCDTRGTTAHPSD [NIDDP M60L D64K R111L] | 1.98 ± 0.27 | 3.14 ± 0.19 | 3.92 ± 0.41
MNIQIGELAKRTACPVVTIRFYEQEGLLPPPGRSRGNFRLYGEEHVERLQFIRHCRSLDMPLSDVRTLLSYRKRPDQDCGEVNMLLDEHIRQVESRIGALLELRHHLVELREACSGARPAQSCGILQILSCCVCDTRGTTAHPSD [NICDP K104R] | 0.0714 ± 0.0069 | 0.134 ± 0.0046 | 0.244 ± 0.034
